We go through one protein from publication doi:10.1101/2021.05.25.445681 (bioRxiv, 2021).

This series deals with the molecule itself. In words: cryo-EM structure.

B1: E. coli MsbA (natural protein)
chain: MHNDKDLSTWQTFRRLWPTIAPFKAGLIVAGVALILNAASDTFMLSLLKPLLDDGFGKTDRSVLVWMPLVVIGLMILRGITSYVSSYCISWVSGKVVMTMRRRLFGHMMGMPVSFFDKQSTGTLLSRITYDSEQVASSSSGALITVVREGASIIGLFIMMFYYSWQLSIILIVLAPIVSIAIRVVSKRFRNISKNMQNTMGQVTTSAEQMLKGHKEVLIFGGQEVETKRFDKVSNRMRLQGMKMVSASSISDPIIQLIASLALAFVLYAASFPSVMDSLTAGTITVVFSSMIALMRPLKSLTNVNAQFQRGMAACQTLFTILDSEQEKDEGKRVIERATGDVEFRNVTFTYPGRDVPALRNINLKIPAGKTVALVGRSGSGKSTIASLITRFYDIDEGEILMDGHDLREYTLASLRNQVALVSQNVHLFNDTVANNIAYARTEQYSREQIEEAARMAYAMDFINKMDNGLDTVIGENGVLLSGGQRQRIAIARALLRDSPILILDEATSALDTESERAIQAALDELQKNRTSLVIAHRLSTIEKADEIVVVEDGVIVERGTHNDLLEHRGVYAQLHKMQFGQ
With B1, the binding result is “binds”.
